According to doi:10.1101/2024.02.06.579161:

Biological target: T1, S100A9, P06702
T1 chain: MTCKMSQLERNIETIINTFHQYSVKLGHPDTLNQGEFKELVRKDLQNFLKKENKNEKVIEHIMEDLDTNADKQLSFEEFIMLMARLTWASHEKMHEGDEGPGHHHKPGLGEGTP
Assay: SDS-PAGE
Conditions: remark: other sources report otherwise

B1: S100A9, P06702 1-114 (natural protein)
chain: MTCKMSQLERNIETIINTFHQYSVKLGHPDTLNQGEFKELVRKDLQNFLKKENKNEKVIEHIMEDLDTNADKQLSFEEFIMLMARLTWASHEKMHEGDEGPGHHHKPGLGEGTP
In the case of B1, the stoichiometry N is reported as 2.
